Starred links: 1 amine or outer side, 2 acyl side, 3 side chain; linkers in the order of their positions; H or OH if unused. Positions of bridges follow the written chain, without caps; N, C: chain ends. Non-standard residues stand in square brackets, D forms with d. Primed or numbered codes have the meaning given here. PyrS2″ = (S)-3-amino-1-((pent-4-en-1-yloxy)carbonyl)pyrrolidine-3-carboxylic acid (stapling residue), C=CCCCOC(=O)N1CC[C@@](N[*:1])(C(=O)[*:2])C1; B5(24) = 2-amino-2-(pent-4-en-1-yl)hept-6-enoic acid, 2,2-bis(4-pentenyl)glycine (stitching residue), C=CCCCC(CCCC=C)(N[*:1])C(=O)[*:2]; B5(4) = 2,2-bis(4-pentenyl)glycine = 2-amino-2-(pent-4-en-1-yl)hept-6-enoic acid (stitching residue), C=CCCCC(CCCC=C)(N[*:1])C(=O)[*:2]; B5(12) = 2-amino-2-(pent-4-en-1-yl)hept-6-enoic acid (two olefin side chains), C=CCCCC(CCCC=C)(N[*:1])C(=O)[*:2]; B5(19) = 2-amino-2-(pent-4-en-1-yl)hept-6-enoic acid (bis(4-pentenyl)glycine), C=CCCCC(CCCC=C)(N[*:1])C(=O)[*:2]; B5 = 2-amino-2-(pent-4-en-1-yl)hept-6-enoic acid, C=CCCCC(CCCC=C)(N[*:1])C(=O)[*:2]; Ala(morpholin-4-yl) = N[C@@H](CN1CCOCC1)C(=O)O; Phe(3-CONH2) = NC(=O)c1cccc(C[C@H](N)C(=O)O)c1; Phe(3-COOH) = N[C@@H](Cc1cccc(C(=O)O)c1)C(=O)O; Phe(3-Cl) = N[C@@H](Cc1cccc(Cl)c1)C(=O)O; Phe(3-OMe) = COc1cccc(C[C@H](N)C(=O)O)c1; Phe(2-Cl) = N[C@@H](Cc1ccccc1Cl)C(=O)O; Ala(cPent) = N[C@@H](CC1CCCC1)C(=O)O; Bta = N[C@@H](Cc1csc2ccccc12)C(=O)O; Lys(iPr) = CC(C)NCCCC[C@H](N)C(=O)O; αAllylPro = C=CC[C@@]1(C(=O)O)CCCN1; tBuAla = CC(C)(C)C[C@H](N)C(=O)O; 2Pal = N[C@@H](Cc1ccccn1)C(=O)O; 3Pal = N[C@@H](Cc1cccnc1)C(=O)O; 4Pal = N[C@@H](Cc1ccncc1)C(=O)O; 3Thi = N[C@@H](Cc1ccsc1)C(=O)O; Cha = N[C@@H](CC1CCCCC1)C(=O)O; S8 = C=CCCCCCC[C@](C)(N)C(=O)O; PyrS2(4) = not defined here; hSer = N[C@@H](CCO)C(=O)O; Nle = CCCC[C@H](N)C(=O)O; Aib = CC(C)(N)C(=O)O
How the values were obtained:
[1] = target: full-length beta-Catenin (Uniprot ID P35222) (Homo sapiens (Human)) (UniProt P35222); experiment: fluorescence polarization competition; 10 nM full-length beta-catenin, competitor 10 nM 5FAM-TCF4(10-53)
Target sequence in this assay (P35222 whole entry, the tested form may be a part): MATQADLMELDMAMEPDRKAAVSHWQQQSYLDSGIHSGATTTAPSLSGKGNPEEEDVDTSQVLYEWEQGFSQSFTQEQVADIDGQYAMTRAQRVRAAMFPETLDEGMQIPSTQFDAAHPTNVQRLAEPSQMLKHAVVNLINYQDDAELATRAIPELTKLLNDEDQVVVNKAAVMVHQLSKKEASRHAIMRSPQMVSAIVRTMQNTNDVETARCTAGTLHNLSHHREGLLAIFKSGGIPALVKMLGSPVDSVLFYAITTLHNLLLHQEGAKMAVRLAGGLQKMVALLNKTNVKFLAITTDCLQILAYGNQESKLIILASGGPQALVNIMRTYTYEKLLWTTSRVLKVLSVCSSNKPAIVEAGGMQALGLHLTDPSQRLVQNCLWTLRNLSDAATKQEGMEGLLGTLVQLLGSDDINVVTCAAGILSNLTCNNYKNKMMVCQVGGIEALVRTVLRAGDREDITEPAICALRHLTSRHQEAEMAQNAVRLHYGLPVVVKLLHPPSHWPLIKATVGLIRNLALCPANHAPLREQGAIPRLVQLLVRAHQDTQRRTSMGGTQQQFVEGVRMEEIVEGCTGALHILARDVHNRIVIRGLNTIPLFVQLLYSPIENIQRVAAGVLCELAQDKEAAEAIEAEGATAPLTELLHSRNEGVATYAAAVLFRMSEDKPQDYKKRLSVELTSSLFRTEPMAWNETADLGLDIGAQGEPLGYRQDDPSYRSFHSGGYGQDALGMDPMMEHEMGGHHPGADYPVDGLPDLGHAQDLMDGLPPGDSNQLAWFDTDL

[2] = target: full-length beta-Catenin (Uniprot ID P35222) (Homo sapiens (Human)) (UniProt P35222); experiment: fluorescence polarization competition; full-length beta-catenin with 5FAM-labeled TCF4 (residues 10-53) probe as competitor
Target sequence in this assay (P35222 whole entry, the tested form may be a part): as above

[3] = target: full-length beta-Catenin (Uniprot ID P35222) (Homo sapiens (Human)) (UniProt P35222); experiment: fluorescence polarization competition; 10 nM full-length beta-catenin with 10 nM 5FAM-labeled TCF4 residues 10-53 probe (competitor displaced)
Target sequence in this assay (P35222 2-781 limits assumed): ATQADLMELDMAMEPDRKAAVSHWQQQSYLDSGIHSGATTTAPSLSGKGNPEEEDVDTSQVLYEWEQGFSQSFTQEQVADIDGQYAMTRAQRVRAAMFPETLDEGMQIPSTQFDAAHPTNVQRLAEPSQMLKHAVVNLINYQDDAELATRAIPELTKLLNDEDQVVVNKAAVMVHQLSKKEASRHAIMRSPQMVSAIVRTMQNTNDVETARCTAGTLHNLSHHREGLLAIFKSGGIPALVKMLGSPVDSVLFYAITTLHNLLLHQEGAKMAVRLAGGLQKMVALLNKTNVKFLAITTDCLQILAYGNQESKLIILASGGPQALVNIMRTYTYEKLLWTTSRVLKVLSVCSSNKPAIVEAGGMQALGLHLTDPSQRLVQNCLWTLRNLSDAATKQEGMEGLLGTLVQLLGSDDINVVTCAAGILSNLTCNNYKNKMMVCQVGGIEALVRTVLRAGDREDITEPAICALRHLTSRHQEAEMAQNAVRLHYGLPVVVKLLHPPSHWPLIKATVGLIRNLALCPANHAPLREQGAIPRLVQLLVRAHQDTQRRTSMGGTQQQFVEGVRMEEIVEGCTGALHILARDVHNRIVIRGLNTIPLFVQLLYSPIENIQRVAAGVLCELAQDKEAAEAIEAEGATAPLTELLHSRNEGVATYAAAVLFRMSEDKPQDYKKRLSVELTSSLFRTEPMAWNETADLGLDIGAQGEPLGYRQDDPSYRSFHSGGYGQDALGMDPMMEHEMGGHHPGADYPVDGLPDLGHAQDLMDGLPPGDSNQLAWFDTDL

[4] = target: full-length beta-Catenin (Uniprot ID P35222) (Homo sapiens (Human)) (UniProt P35222); experiment: fluorescence polarization competition, 5FAM-TCF4 10-53 probe on full-length beta-catenin
Target sequence in this assay (P35222 2-781 limits assumed): as above

[5] = target: full-length beta-Catenin (Uniprot ID P35222) (Homo sapiens (Human)) (UniProt P35222); experiment: fluorescence polarization competition, full-length beta-catenin, competitor 5FAM-TCF4 10-53
Target sequence in this assay (P35222 whole entry, the tested form may be a part): as the sequence (P35222 whole entry, the tested form may be a part) above

IC50 [3] [nM] | Binder | also measured
 | Ac-[αAllylPro]DA[B5]DEAA[Ala(cPent)]V[S8]F[Bta]Q-NH2 (staple 1-4, 4-11) [I-392] | EC50 [1]: 5000 nM; IC50 [2]: 5000 nM
119 | Ac-[αAllylPro]D[tBuAla][B5(12)]D[Phe(3-COOH)][Nle]AFL[PyrS2(4)][3Thi][Bta]F-NH2 (staple 1-4, 4-11; not fully specified; printed as Ac-PL3-Asp-Npg-B5-Asp-3COOHF-nLeu-Ala-Phe-Leu-PyrS2-3Thi-BztA-Phe-NH2; reading uncertain) [I-1913] | 
 | Ac-[αAllylPro]D[Cha][B5(24)]DDAAFS[PyrS2″][Phe(2-Cl)][Bta][dT]-NH2 (staple 1-4, 4-11) [I-1136] | EC50 [4]: 16 nM; IC50 [5]: 16 nM
 | Ac-[αAllylPro]D[Cha][B5(4)]DDAAFS[PyrS2″][Phe(2-Cl)][Bta]T-NH2 (staple 1-4, 4-11) [I-1135] | EC50 [4]: 20 nM; IC50 [5]: 20 nM
8 | Ac-[αAllylPro]D[tBuAla][B5(4)]D[Phe(3-COOH)]HAFL[PyrS2(4)][3Thi][Bta]A-NH2 (staple 1-4, 4-11; not fully specified; printed as Ac-PL3-Asp-Npg-B5-Asp-3COOHF-His-Ala-Phe-Leu-PyrS2-3Thi-BztA-Ala-NH2; reading uncertain) [I-1916] | 
1560 | Ac-[αAllylPro]N[Cha][B5(19)]DQ[Lys(iPr)]AFN[PyrS2″][Phe(3-OMe)][Bta][hSer]-NH2 (staple 1-4, 4-11) [I-1930] | 
887 | Ac-[αAllylPro]N[Cha][B5(19)]DQ[Lys(iPr)]AFN[PyrS2″][Phe(3-Cl)][Bta][hSer]-NH2 (staple 1-4, 4-11) [I-1928] | 
5140 | Ac-[αAllylPro]N[Cha][B5(19)]DQ[Lys(iPr)]AFN[PyrS2″][3Pal][Bta][hSer]-NH2 (staple 1-4, 4-11) [I-1927] | 
154 | Ac-[αAllylPro]N[Cha][B5(19)]D[hSer][Lys(iPr)]AFN[PyrS2″]F[Bta][hSer]-NH2 (staple 1-4, 4-11) [I-1933] | 
457 | Ac-[αAllylPro]N[Cha][B5(12)]DQ[Lys(iPr)]AF[hSer][PyrS2(4)]F[Bta][hSer]-NH2 (staple 1-4, 4-11; not fully specified; printed as Ac-PL3-Asn-Cha-B5-Asp-Gln-iPrLys-Ala-Phe-Hse-PyrS2-Phe-BztA-Hse-NH2; reading uncertain) [I-1922] | 
1610 | Ac-[αAllylPro]N[Cha][B5(12)]DQ[Lys(iPr)]A[Phe(3-Cl)]N[PyrS2(4)]F[Bta][hSer]-NH2 (staple 1-4, 4-11; not fully specified; printed as Ac-PL3-Asn-Cha-B5-Asp-Gln-iPrLys-Ala-3C1F-Asn-PyrS2-Phe-BztA-Hse-NH2; reading uncertain) [I-1924] | 
 | Ac-[αAllylPro]DA[B5]DEAA[2Pal]V[S8]F[Bta]Q-NH2 (staple 1-4, 4-11; also: earlier eluting staple isomer) [I-386] | EC50 [1]: 5000 nM; IC50 [2]: 5000 nM
10000 | Ac-[αAllylPro]N[Cha][B5(12)]DQ[Lys(iPr)]A[3Pal]N[PyrS2(4)]F[Bta][hSer]-NH2 (staple 1-4, 4-11; not fully specified; printed as Ac-PL3-Asn-Cha-B5-Asp-Gln-iPrLys-Ala-3PyrA-Asn-PyrS2-Phe-BztA-Hse-NH2; reading uncertain) [I-1923] | 
417 | Ac-[αAllylPro]N[Cha][B5(19)]DQ[Lys(iPr)]A[Phe(3-OMe)]N[PyrS2″]F[Bta][hSer]-NH2 (staple 1-4, 4-11) [I-1926] | 
 | Ac-[αAllylPro]DA[B5(4)]DEAAFV[S8][4Pal][Bta]Q-NH2 (staple 1-4, 4-11) [I-385] | EC50 [1]: 3150 nM; IC50 [2]: 3150 nM
74 | Ac-[αAllylPro]N[Cha][B5(19)]DQ[Lys(iPr)]AFN[PyrS2″][Phe(3-CONH2)][Bta][hSer]-NH2 (staple 1-4, 4-11) [I-1929] | 
1560 | Ac-[αAllylPro]N[Cha][B5(19)]DQ[Lys(iPr)]SFN[PyrS2″]F[Bta][hSer]-NH2 (staple 1-4, 4-11) [I-1931] | 
5 | Ac-[αAllylPro]D[tBuAla][B5(4)]D[Phe(3-COOH)]QAFL[PyrS2(4)][3Thi][Bta]A-NH2 (staple 1-4, 4-11; not fully specified; printed as Ac-PL3-Asp-Npg-B5-Asp-3COOHF-Gln-Ala-Phe-Leu-PyrS2-3Thi-BztA-Ala-NH2; reading uncertain) [I-1918] | 
 | Ac-[αAllylPro]DA[B5]DEAA[2Pal]V[S8]F[Bta]Q-NH2 (staple 1-4, 4-11; also: later eluting staple isomer) [I-387] | EC50 [1]: 2620 nM; IC50 [2]: 2620 nM
475 | Ac-[αAllylPro]N[Cha][B5(19)]DQ[Lys(iPr)]A[Phe(3-CONH2)]N[PyrS2″]F[Bta][hSer]-NH2 (staple 1-4, 4-11) [I-1925] | 
52 | Ac-[αAllylPro]D[tBuAla][B5(12)]D[Phe(3-COOH)][Aib]AFL[PyrS2(4)][3Thi][Bta]F-NH2 (staple 1-4, 4-11; not fully specified; printed as Ac-PL3-Asp-Npg-B5-Asp-3COOHF-Aib-Ala-Phe-Leu-PyrS2-3Thi-BztA-Phe-NH2; reading uncertain) [I-1914] | 
 | Ac-[αAllylPro]DA[B5(4)]DEAAFV[S8][2Pal][Bta]Q-NH2 (staple 1-4, 4-11; also: later eluting staple isomer) [I-384] | IC50 [2]: 177 nM
 | Ac-[αAllylPro]D[tBuAla][B5(4)]DDAAFN[PyrS2″][Phe(2-Cl)][Bta][Ala(morpholin-4-yl)]-NH2 (staple 1-4, 4-11; also: later eluting staple isomer) [I-1134] | EC50 [4]: 6 nM; IC50 [5]: 6 nM
